Results taken from EP1514558A1.

Biological target: recombinant MARK2, expressed in E. coli (Rattus norvegicus (Rat)) (UniProt O08679)
Test: cell-based or functional assay

Sequence of recombinant MARK2, expressed in E. coli (Rattus norvegicus (Rat)) (O08679 1-722, tags left off): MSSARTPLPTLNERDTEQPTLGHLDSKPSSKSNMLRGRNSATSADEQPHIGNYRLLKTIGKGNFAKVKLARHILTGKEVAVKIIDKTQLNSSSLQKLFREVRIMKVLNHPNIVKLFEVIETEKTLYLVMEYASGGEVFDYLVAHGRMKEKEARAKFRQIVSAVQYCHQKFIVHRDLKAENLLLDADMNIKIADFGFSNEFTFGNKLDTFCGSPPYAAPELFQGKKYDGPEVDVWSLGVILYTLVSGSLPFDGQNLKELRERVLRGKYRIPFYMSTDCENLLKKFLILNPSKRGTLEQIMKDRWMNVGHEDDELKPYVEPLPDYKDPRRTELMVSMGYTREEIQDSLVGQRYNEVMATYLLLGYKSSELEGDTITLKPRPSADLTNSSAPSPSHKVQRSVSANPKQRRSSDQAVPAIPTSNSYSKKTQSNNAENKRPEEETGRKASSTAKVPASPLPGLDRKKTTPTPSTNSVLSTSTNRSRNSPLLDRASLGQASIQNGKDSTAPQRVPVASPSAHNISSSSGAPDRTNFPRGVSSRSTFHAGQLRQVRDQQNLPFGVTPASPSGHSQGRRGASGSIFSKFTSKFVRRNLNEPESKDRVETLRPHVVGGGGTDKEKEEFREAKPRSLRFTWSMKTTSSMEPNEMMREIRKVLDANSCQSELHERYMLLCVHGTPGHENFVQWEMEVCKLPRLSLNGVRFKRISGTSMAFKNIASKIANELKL

| Substance | activation of MARK2 by fraction 14 [fold] | activation of MARK2 (Fig. 4B) [fold] |
| --- | --- | --- |
| MARK-activating factor (MAF) purified from porcine brain | 10 |  |
| recombinant MARKK (His10-tagged at the N-terminus), expressed in Sf9 cells (from UniProt O88664 1-1001) (enzyme) |  | 10 |
